Measurements taken from the nanobody polyreactivity screen of Harvey et al. (2022).

Assay: yeast display, Sf9 membrane polyspecificity reagent, FACS + sequencing; frameworks hold sequencing errors
In short: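 Synthetic nanobody libraries on Saccharomyces cerevisiae BJ5465 were galactose-induced for 36–48 hours, stained 1 hour at 4 °C with 10% biotinylated, detergent-solubilized Sf9 membrane reagent and enriched on streptavidin microbeads. FACS then separated cells into low and high (top ~1%) gates by anti-HA (expression) and streptavidin (reagent binding) fluorescence. Genes were colony-PCR amplified, MiSeq 2 × 250 sequenced and CDR-length filtered. A clone's polyreactivity label is that of its gate of origin.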

Sequence	polyreactivity (PSR sort gate)
QVQLVESGGGLVQAGGSLRLICAASGFIFWRYAMGWYRQAPGKERELVAAISRTSTSTYYADSVKGRFTISRDNAKNSVYLQMNSLKPEDTAVYYCAATFSTFYGYGYWGQGSQVTVSS	high polyreactivity
QVQLVESGGGLVQAGGSLRLICAASGFIFWSNAMGWYRQAPGKEMELVAAITWNGGDTYYADSVKGRFTISRDNAKNTVYLQMNSLKPEDTAVYYCAAVHSRRARYDYWGQGTQVTVSS	low polyreactivity
QVQLVESGGGLVQAGGSLRLICAASGFILNSYAMGWYRQAPGKERELVAAITRSGGNTFYADSVKGRFKISRDNAKNTVYLQLNSLKPDDTAVYYCNAYFTYWSQLYYWGQGTQVTVSS	high polyreactivity
QVQLVESGGGLVQAGGSLRLICAASGFIMRPYTMGWYRQAPGKERELVAAITSGGRTYYADSVKGRFTISRDNAKNTVYLQMNSLKPEDTAVYYCAALTYYRTVRTFSYPYDYWGQGTQVTVSS	high polyreactivity
QVQLVESGGGLVQAGGSLRLICAASGFTFGYYPMGWYRQAPGKERELVAAINWSGVNTNYADSVKGRFTISRDNAKNTVYLQMNSVKPEDTAVYYCAADAGYDGYGYWGQGTQVTVSS	low polyreactivity
QVQLVESGGGLVQAGGSLRLICAASGFTFNWYAMGWYRQAPGKERELVATISSTGSTYYADSVKGRFTISRDNAKNTVYLQMNSQKPEDTGVYYCAVRRPPYSYYWDFDSWGQGTPVTVSS	high polyreactivity
QVQLVESGGGLVQAGGSLRLICAASGFTFRAYAMGWYRQAPGKERELVAAISTVGGSTYYADSVKGRFTISRDNAKNTVYLQMNSLKPEETAVYYCAARRRTGREYGYWGKGTQVTVSS	high polyreactivity
QVQLVESGGGLVQAGGSLRLICAASGFTFRGYAMGWYRQAPGKERELVAAIRRGVITNYADSVNGRFTISRDNAKNTVYLQMNSLKPEDTAVYYCAAGNITPYRYYHGYYQSIYDYWGQGTIVTVSS	low polyreactivity
QVQLVESGGGLVQAGGSLRLICAASGFTFSWYVMGWYRQAPGKERELVATITNRGGSTYYADSVKGRFTISRDTAKNTVYLQMNSLKPEDTAVYYCAARKKGSRVGYDYCGQGTQVTVSS	high polyreactivity
QVQLVESGGGLVQAGGSLRLICAASGFTFSYYAMVWYRQAPGKERELVAVISDRGGITYYADSVKGRFTISRDNAKNTVYLQMNSLKPEDTAVYYCAAQNPRYNYRYYYWGQGTQVTVSS	low polyreactivity
QVQLVESGGGLVQAGGSLRLICAASGFTFYLYTMGWYRPAPGKERELVASIRRSGGSTYYADSVKGRFTISRDNAKNTVYLQMNSLKPEDTAVYYCAKRTFLVSGPRSYGWYGVYYWGQGTQVTVSS	high polyreactivity
QVQLVESGGGLVQAGGSLRLICAASGFTFYRYAMGWYRQAPGKERELVAAITRSGGSTYYADSVKGRFTISRDNAKNTVYLQMNSLKPEDTAVYYCARTYWITNSKFRDYLGAYGGDYWGQGTQVTVSS	high polyreactivity
QVQLVESGGGLVQAGGSLRLICAASGFTFYYYAMGWYRQAPGKEWELVAAISRNGVSTYYADSVKGRFTISRDNAKNTVYLQMNSLKPEDTAVYYCASGYGSLHVNYLGQGTQVTVSS	low polyreactivity
QVQLVESGGGLVQAGGSLRLICAASGFTYSWYAMGWYRQAPGKERELVAAISWDGDSTYYADSVKGRFTISRDIAKNSVYLQMISLKPEDTAVYYCAADFSYYWVGYDYWGQGTQVTVSS	high polyreactivity
QVQLVESGGGLVQAGGSLRLICAASGGIFNRYAMGWYRQAPGKEREFVASISRRGGSTYYADSVKGRFTISRDNAKNTVYLQMNSLKPDDTAVYFCGAEYNSEYDYWGQGTQVTVSS	high polyreactivity
QVQLVESGGGLVQAGGSLRLICAASGGIIYYYAMGWYRQAPGKERELVAGITSAGSTYYADSVKGRFTISRDNAKNTVYLQMNSLKPEDTAVYYCKDAWPGYYWYYDDDYWGQGTQVTVSS	low polyreactivity
QVQLVESGGGLVQAGGSLRLICAASGGTFRAYVMGWYTQAPGKERELVAAISRSGTRTYYSDSVKGRFTISRDNAKNTVYFQMNSLKPEDTAVYYCAAAAKSWLFDYWGQGTLVTVSS	high polyreactivity
QVQLVESGGGLVQAGGSLRLICAASGIIFPVYDMGWYRQAPGKERELVASITDSGGSTSYADSVKGRFTISRDNAKNTVYLQLNSLKPEDTAVYYCAVTDSDTNYYGYLSYDYWGQGTQVNVSS	low polyreactivity
QVQLVESGGGLVQAGGSLRLICAASGITFFRNAMGWYRQAPGKERELVATITKSGGSTYYADSVKGRFTISRDNAKNTVYLQMNSLKPDDTSVYYCSAVRRYPVKYVAYDYWGQGTQVTVSS	low polyreactivity
QVQLVESGGGLVQAGGSLRLICAASGITFSYYALGRSRQAPGKERELVAAISVTGGSTYYADSVKGRFTISRDNAKNTVYLQMNSLKPEDTAVYYCAADSYYYDGDYWGQGTQVTVSS	high polyreactivity
QVQLVESGGGLVQAGGSLRLICAASGITFVTYAMGWYRQAPGKERELVAAISRSGGRTYYADSVKGRFTISRDNAKNTVYLQMNSLKPEDTSVYYCAAERKNKYDYWGQGTQVTVSS	high polyreactivity
QVQLVESGGGLVQAGGSLRLICAASGITFYIYAMGWYRQAPGKERELVATISWSDGRTYYADSVKGRFTISRDNAKNTVYLQMNSLKPEDTAVYYCAADWWYYQFDYEYWGQGTQVTVSS	low polyreactivity

Sequence	polyreactivity (PSR sort gate)
QVQLVESGGGLVQAGGSLRLICAASGLTFADYAMGWYRPAPGKERELVAAISRRGGSTYYADSVKGRFTISRDNAKNTVYLQMNSLKPEDTAVYYCAAYAYDVAFKRYKFDYWGQGTEVTVSS	high polyreactivity
QVQLVESGGGLVQAGGSLRLICAASGLTFNYYVMGWYRQAPGKERELVAAISYSGGRTYYADSVKGRFTISRDNANNTVYLQMNSLKPEDTAVYFCNVTGHRNSFIYYGGYEYWGQGTQVTVSS	high polyreactivity
QVQLVESGGGLVQAGGSLRLICAASGLTFRYYAMGWYRQAPGKERELVAAITRGGSTYYADSVKGRFTISRDNAKNTVYLQMNSLKPEDTAVYYCAAYDVRYNTYDYDYWGQGTQVTVSS	high polyreactivity
QVQLVESGGGLVQAGGSLRLICAASGLTFSIYAMGWYRQAPGKERELVAAITGRGGRTYYADSVKGRFTISRDNAKNTVYLQMNSLKPEDTAVYYCAARYRGTDFDYWGQGTQVTVSS	high polyreactivity
QVQLVESGGGLVQAGGSLRLICAASGLTFSRYAMGWYRQAPGKERELVAAITWSGSSTYYADSVKGRFTISRDKAKNTVYLQMNSLKPEDTAVYYCAARYGYSRGPYYRSDYWGQGTQVTVSS	high polyreactivity
QVQLVESGGGLVQAGGSLRLICAASGLTFYVNAMGWYRQAPGKERELVADISSGVSTNYADSVKGRFTISRDNAKNTVYLQMNSLKPEDTAVYYCNVERYKKLSRTHNYRRYNYWGQGTQVTVSS	high polyreactivity
QVQLVESGGGLVQAGGSLRLICAASGNIFVPNAMGWYREAPGKEWELVAAIRRGGSTNYADSVKGRFTISRDNAKTTVYFQMNSLKPEDTAVYYCAKSRVSFTDLEGYYWGQGTQVTVSS	low polyreactivity
QVQLVESGGGLVQAGGSLRLICAASGNTFYGYAMGWSRPAPGKERELVASITLSGDSTYYADSVKGRFTISRDNAKNTVYLQMNSLKPEDTAVYYCAGVYTYPLGYYHYTYDYWGQGTQVTVSS	low polyreactivity
QVQLVESGGGLVQAGGSLRLICAASGNTFYGYAMGWYRQAPGKERELVASITLSGDSTYYADSVKGRFTISRDNAKNTVYLQMNSLKPEDTAVYYCNRARHQYSRWHGGYYYWGQGTQVTVSS	low polyreactivity
QVQLVESGGGLVQAGGSLRLICAASGRIFALYAMGWYRQAPGKEREFVATITRGASTNYADSVKGRFTISRDNAKNTVYLQMNSLKPVDTAVYYCAAAGYKAAGRVVASYYWGQGTQVTVSS	high polyreactivity
QVQLVESGGGLVQAGGSLRLICAASGRIFASYTMGWYRQAPGKERELVAGISRRGGSTYYADSVKGRFTISRDNAKNTVYLQMNSLKPEDTAVYYCAAVSSVFSVRYDYWGQGTQVTVSS	high polyreactivity
QVQLVESGGGLVQAGGSLRLICAASGRIFDYYGMGWYRQAPGKETELVATIRRGGSTYYADSVKGRFTISRDNAMNTVYLQMNSLKPEDTAVYYCAAPGYSWYTYRRYDYWGQGTQVTVSS	high polyreactivity
QVQLVESGGGLVQAGGSLRLICAASGRIFFHYAMGWYRQAPGKVRELVAVISSTGGITNYADSVKGRFTISRDNAKNTVYLQMNSLKPEDTAVYYCNTVPRPFERYGYWGQGTQVTVSS	low polyreactivity
QVQLVESGGGLVQAGGSLRLICAASGRIFKYNAMGWDRQAPGTERELVAAISSSGGSTYYADSVKGRFTISRDNAKYTVYLLMNSLKPEDTAVYYCAARFNSGVYRYDYWGQGTQVTVSS	high polyreactivity
QVQLVESGGGLVQAGGSLRLICAASGRIFNRNAMGWYRQAPGKERELVASISSGGRTNYADSVKGRFTISRDNAKNTVYLQMNSLKPEDTAVYYCAAKSPRILLDYWGQGTQVTVSS	low polyreactivity
QVQLVESGGGLVQAGGSLRLICAASGRIFRGYAMGWYRQAPGKERELVAAISGRGGRTNYADSVKGRFTISRDNAKNTVYLQMNSLKPEDTAVYYCATVPYTASRYEYWGQGTQVTVSS	high polyreactivity
QVQLVESGGGLVQAGGSLRLICAASGRIFRHYAMGWYRQAPGKEREFVAAISRSGGSTYYADSVKGRFTISRDNAKNTVYLQMHSLKPEDTAVYYCYARHRYTGIRFFQPYDYWGQGTQVTVSS	low polyreactivity
QVQLVESGGGLVQAGGSLRLICAASGRIFRYNARGWYRQAPGKERELVAAISSGGSTNYADSVKGRFTTSRDNAKNTVYLQMNSLKPEDTAVYYCNAESVHRYPGWGYDYWGQGTQVTVSS	low polyreactivity
QVQLVESGGGLVQAGGSLRLICAASGRIFTAYVMGWYRQAPGKERQLVAAITEGGGNTYYADSVKGRFTISRDNAKNTVYLQMNSLKPEDTAVYYCAARYLVNGRKRLYYWGQGTQVTVSS	high polyreactivity
QVQLVESGGGLVQAGGSLRLICAASGRIFVGNTMGWYRQAPGKERELVAAITSSGGSTYYADSVKGRFTISRDNAKNTVYLQMNSLKPEDTAVYYCAARTREYQWRYYYWGQGTQVTVSS	high polyreactivity
QVQLVESGGGLVQAGGSLRLICAASGRIFVPYAMGWYRQAPGKERELVAAITYDGGSTYYADSVKGRFTISRDNAKNTVYLQMNSLKPEDTAVYYCAADYGYSQYILGQFRLEELDYWGQGTQVTVSS	low polyreactivity
